Results on two substances are retold here after paper PMC3366955.

For data set [1] the following is noted: SEC-MALS.
Data set [2] has as its target recombinant 42 kDa processed form of the P. falciparum merozoite surface protein 1, FVO allele (MSP1_(42)-FVO) (Plasmodium falciparum). The data set is described as follows: SEC-MALS. In general terms: SEC sorts molecules by how far they enter the pores of the column.

On to “recombinant 42 kDa processed form of the P. falciparum merozoite surface protein 1, FVO allele (MSP1_(42)-FVO)”, for which the “percent of the total peak area as aggregate” value in data set [1] is on record as “approximately 1.7 MDa for 96% of the total peak area”.

Consider “recombinant 42 kDa processed form of the P. falciparum merozoite surface protein 1, FVO allele (MSP1_(42)-FVO) (domain or fragment)”, for which, in data set [2], the percent of the protein as dimers was 72%; the percent of the protein as multimers came to 28%; the stoichiometry N – broadly, the number of molecules, sites or subunits per partner or assembly – amounted to 2.
